Measurements reported in publication PMC7949049 (The Journal of Biological Chemistry, 2020).
Where two headings read alike, the source gives them in different places. Positions of bridges follow the written chain, without caps; N, C: chain ends. Non-standard residues stand in square brackets, D forms with d. Residues, ends and D or L forms follow the SMILES beside them. No end group written: not given here. *: point of attachment. 5FAM = O=C1OC2(c3ccc(O)cc3Oc3cc(O)ccc32)c2ccc(C(=O)*)cc21; S5 = C=CCCC[C@](C)(N)C(=O)O

Assays:
[1] = test system: V5-RalB Q72L / endogenous Sec5 complex; test: Coimmunoprecipitation of RalB/Sec5 in HEK293T cell lysate; assay type: biochemical; details: peptide 1 h at 4 °C, anti-V5 IP, western blot
Protocol: (§1) 3 × 10^6 HEK293T cells were seeded in 10 cm dishes 48 h before the end point, in DMEM supplemented with 10% FBS. […] Dishes were lysed in 1 ml lysis buffer (50 mM Tris-HCl pH 7.8, 150 mM NaCl, 1% Triton, 1 mM EDTA, 1 mM sodium orthovanadate, 1 mM β-glycerophosphate, and protease inhibitor cocktail (Sigma-Aldrich). Lysates (1 ml) were centrifuged at 17,000g for 20 min and added to Protein G Dynabeads (30 μl, Invitrogen) preincubated with anti-V5 antibody (1 μg, R960-25, Invitrogen). Peptides, at the concentrations indicated in the results, were added and incubated with rotation for 1 h at 4 °C. Precipitated complexes were washed with lysis buffer (3 × 500 μl). Samples were resolved by SDS-PAGE and transferred to PVDF membranes (Immobilon-P). Membranes were probed by immunoblotting with the following primary antibodies: anti-V5-HRP (R961-25, Invitrogen), anti-flag-HRP (A8592, Sigma-Aldrich), and anti-Sec5 (EPR9420, Abcam).

[2] = target: T1, RalA·GTP (Homo sapiens, UniProt P11233, Q72L); test: Competition SPA, RalA against immobilized His-tagged wild-type RLIP76 RBD; assay type: binding
T1 construct: RalA (pMAT10, residues 1–184, Q72L); His6-MBP (cleaved yes); made in house; host or cells: E. coli (inferred from the pMAT10/pGEX vectors)
T1 sequence (P11233 1-184 Q72L): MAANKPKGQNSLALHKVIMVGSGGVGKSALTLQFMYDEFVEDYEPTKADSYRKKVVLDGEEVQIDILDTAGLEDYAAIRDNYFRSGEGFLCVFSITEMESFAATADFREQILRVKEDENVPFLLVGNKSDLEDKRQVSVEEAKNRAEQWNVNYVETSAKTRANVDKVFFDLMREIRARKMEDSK

[3] = test system: V5-RalB Q72L / flag-RLIP76 complex; test: Coimmunoprecipitation of RalB/RLIP76 in HEK293T cell lysate; assay type: biochemical; details: V5-RalB Q72L and flag-RLIP76, peptide 1 h at 4 °C, anti-V5 IP, western blot
Protocol: as §1

[4] = target: T2, RhoA·GMPPNP (Homo sapiens, UniProt P61586, F25N/Q63L); test: Direct-binding fluorescence polarization, RhoA; details: 20 nM FAM-labelled non-solubilized peptide; n ≥ 2; ± standard error from curve fitting; read-out: Kd RhoA, FP (Table S1)
T2 construct: RhoA (pGEX-2T, 1–186, F25N/Q63L); GST (cleaved yes); made in house
Protocol: (§2) FP experiments were performed on a BMG Labtech Pherastar fluorimeter at 298 K with excitation at 485 nm and emission at 520 nm as described previously ([34]), using 20 nM FAM-labeled peptide. Plates were read after 30 min incubation at room temperature. Data were fitted to a single-site binding model using nonlinear regression analysis in GraphPad prism 8.4 to obtain Kd values and their standard errors.

[5] = target: T3, Cdc42 (Homo sapiens, UniProt P60953, Q61L); test: Direct-binding fluorescence polarization, Cdc42; details: 20 nM FAM-labelled non-solubilized peptide; n ≥ 2; ± standard error from curve fitting; read-out: Kd Cdc42, FP (Table S1)
T3 construct: Cdc42 (pGEX-2T, 1–184, Q61L); GST (cleaved yes); made in house
Protocol: as §2

[6] = target: SP1 stapled peptide (RLIP76) 423-446 (Homo sapiens) (UniProt Q15311); details: cited from earlier work
[7] = target: SP1 stapled peptide (RLIP76) 423-446 (Homo sapiens) (UniProt Q15311); details: cited from earlier work; remark: listed apart in the source
[8] = target: RalA (Homo sapiens) (UniProt P11233); details: cited from earlier work
[9] = target: RalB (Homo sapiens) (UniProt P11234); details: cited from earlier work
[10] = target: R-Ras (Homo sapiens) (UniProt P10301); details: cited from earlier work
[11] = target: SP1 stapled peptide (RLIP76) 423-446 (Homo sapiens) (UniProt Q15311); details: cited from earlier work; remark: listed apart in the source
[12] = target: T4, RalB (residues 1–185, Q72L) (UniProt P11234 1-185, Q72L); test: scintillation proximity assay (competition); His-tagged wild-type RLIP76 RBD immobilised on SPA beads, fixed [3H]GTP·RalA (100 nM) or [3H]GTP·RalB (250 nM), competitor RBD or peptide titrated; pure competition model, apparent Kd (Ki); details: both partners purified
T4 construct: Loaded with [3H]GTP for SPA, with GMPPNP for ITC, FP and crystallisation; also called RalB·GTP; source: expressed from pMAT10 as His6-MBP fusion, cleaved from its tag as described previously
T4 sequence (looked up): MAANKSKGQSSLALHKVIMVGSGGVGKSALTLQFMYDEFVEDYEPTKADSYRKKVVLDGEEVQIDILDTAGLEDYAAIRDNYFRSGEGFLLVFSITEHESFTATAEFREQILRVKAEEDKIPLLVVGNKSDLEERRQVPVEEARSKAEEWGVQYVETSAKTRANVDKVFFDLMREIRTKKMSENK

[13] = target: RalA (residues 1–184, Q72L) (UniProt P11233); test: as above
[14] = target: T5, RalA (residues 1–184, Q72L) (UniProt P11233 1-184, Q72L); test: scintillation proximity assay (competition); GST-tagged Sec5 RBD immobilised on SPA beads, fixed [3H]-GTP RalA, peptides or RLIP76 RBD titrated; pure competition model, apparent Kd (Ki); details: both partners purified
T5 construct: RalA small GTPase, residues 1-184, constitutively active Q72L; Loaded with [3H]GTP for SPA, with GMPPNP or GDP for fluorescence polarisation; also called RalA·GTP; [3H]-GTP RalA; source: expressed from pMAT10 as His6-MBP fusion, cleaved from its tag as described previously
T5 sequence (looked up): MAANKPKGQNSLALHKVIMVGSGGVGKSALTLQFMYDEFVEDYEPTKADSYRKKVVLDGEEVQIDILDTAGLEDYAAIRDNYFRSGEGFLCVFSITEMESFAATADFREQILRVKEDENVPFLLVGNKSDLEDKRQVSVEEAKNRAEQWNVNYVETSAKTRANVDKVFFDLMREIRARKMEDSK

[15] = target: T5, RalA (residues 1–184, Q72L); test: scintillation proximity assay (competition); His-tagged wild-type RLIP76 RBD immobilised on SPA beads, fixed [3H]GTP·RalA (100 nM) or [3H]GTP·RalB (250 nM), competitor RBD or peptide titrated; pure competition model, apparent Kd (Ki); details: both partners purified
[16] = target: T4, RalB (residues 1–185, Q72L); test: fluorescence polarisation; 20 nM FAM-labeled peptide, varying concentrations of GMPPNP-bound small GTPases, 298 K, single-site model; details: both partners purified
[17] = target: T5, RalA (residues 1–184, Q72L); test: as above; details: both partners purified

Chain of SP1 stapled peptide (RLIP76) 423-446 (Homo sapiens) (Q15311 423-446): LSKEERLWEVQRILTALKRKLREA
Chain of R-Ras (Homo sapiens) (P10301 1-215): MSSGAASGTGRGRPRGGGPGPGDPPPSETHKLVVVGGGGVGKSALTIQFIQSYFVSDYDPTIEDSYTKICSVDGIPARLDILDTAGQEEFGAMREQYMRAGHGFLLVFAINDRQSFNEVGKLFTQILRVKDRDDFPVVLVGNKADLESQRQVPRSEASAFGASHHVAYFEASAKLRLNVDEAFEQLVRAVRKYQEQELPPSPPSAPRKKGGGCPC
T2 sequence (P61586 1-186 F25N/Q63L): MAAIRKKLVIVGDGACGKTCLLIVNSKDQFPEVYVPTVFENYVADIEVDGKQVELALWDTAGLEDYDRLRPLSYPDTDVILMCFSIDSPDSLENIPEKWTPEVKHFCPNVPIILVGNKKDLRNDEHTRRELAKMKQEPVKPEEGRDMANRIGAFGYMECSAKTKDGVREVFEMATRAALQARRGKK
T3 sequence (P60953 1-184 Q61L, species assumed): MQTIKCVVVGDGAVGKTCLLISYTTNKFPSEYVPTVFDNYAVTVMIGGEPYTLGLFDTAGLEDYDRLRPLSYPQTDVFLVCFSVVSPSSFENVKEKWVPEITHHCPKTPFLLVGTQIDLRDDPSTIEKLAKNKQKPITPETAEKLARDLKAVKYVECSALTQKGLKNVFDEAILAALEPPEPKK

CC[C@H](C)[C@H](NC(=O)[C@H](CCCNC(=N)N)NC(=O)[C@H](CCC(N)=O)NC(=O)[C@H](CCC(=O)O)NC(=O)[C@H](CCC(=O)O)NC(=O)[C@H](C)NC(=O)[C@H](CC(C)C)NC(=O)[C@]1(C)CCCC=CCCC[C@](C)(NC(=O)[C@@H](N)CC(C)C)C(=O)N[C@@H](CCCCN)C(=O)N[C@@H](CCC(=O)O)C(=O)N[C@@H](CCC(=O)O)C(=O)N1)C(=O)N[C@@H](CCCCN)C(=O)N[C@H](C(=O)N[C@@H](C)C(=O)N[C@@H](CCC(=O)O)C(=O)N[C@@H](CCCCN)C(=O)N[C@@H](CCCNC(=N)N)C(=O)N[C@@H](CCCCN)C(=O)N[C@@H](CCCCN)C(=O)N[C@@H](CCCNC(=N)N)C(=O)N[C@@H](CCC(=O)O)C(=O)N[C@@H](C)C(N)=O)[C@@H](C)O [W430A-sol] (H-L[S5]KEE[S5]LAEEQRIKTAEKRKKREA-NH2; staple 2-6; N-terminus assumed)
disruption of RalB–Sec5 complex in cell lysate [1]: did not inhibit complex formation | Kd [2]: > 100 µM | Kd RalA·GTP, Competition SPA (RLIP76) ([2]; peptides titrated into [3H]-GTP RalA (100 nM) and His-tagged wild-type RLIP76 RBD on SPA beads, apparent Kd (Ki), ± standard error from curve fitting): very weak binding | disruption of RalB–RLIP76 complex in cell lysate [3]: did not inhibit complex formation

CC[C@H](C)[C@H](NC(=O)[C@H](CCCNC(=N)N)NC(=O)[C@H](CC(C)C)NC(=O)[C@@H](NC(=O)[C@H](CCC(=O)O)NC(=O)[C@H](Cc1c[nH]c2ccccc12)NC(=O)[C@H](CC(C)C)NC(=O)[C@]1(C)CCCC=CCCC[C@](C)(NC(=O)[C@H](CC(C)C)NC(=O)c2ccc3c(c2)C(=O)OC32c3ccc(O)cc3Oc3cc(O)ccc32)C(=O)N[C@@H](CCCCN)C(=O)N[C@@H](CCC(=O)O)C(=O)N[C@@H](Cc2c[nH]cn2)C(=O)N1)C(C)C)C(=O)N[C@@H](CC(C)C)C(=O)N[C@H](C(=O)N[C@@H](C)C(=O)N[C@@H](CC(C)C)C(=O)N[C@@H](CCCNC(=N)N)C(=O)N[C@@H](CCCNC(=N)N)C(=O)N[C@@H](CCCCN)C(=O)N[C@@H](CC(C)C)C(=O)N[C@@H](CCCNC(=N)N)C(=O)N[C@@H](CCC(=O)O)C(=O)N[C@@H](C)C(N)=O)[C@@H](C)O [HLR-SP1] (5FAM-L[S5]KEH[S5]LWEVLRILTALRRKLREA-NH2; staple 2-6)
Kd [4]: 0.0125 ± 0.0022 µM | Kd [5]: 6.11 ± 1.67 µM

R-Ras (from UniProt P10301)
Kd [6]: 30 µM

RalB (from UniProt P11234)
Kd [7]: 5 µM

SP1 stapled peptide 423-446 (from UniProt Q15311)
Kd [8]: 14 µM | Kd [9]: 5 µM | Kd [10]: 30 µM

RalA (from UniProt P11233)
Kd [11]: 14 µM

B1: RLIP76 RBD WDASQSR mutant (domain or fragment)
chain: ETQAGIKEEIRRQEFLLNSLHRDLQGGIKDLSKWDRAWEVSQILSALRRKLREA
notes: RLIP76 residues 423-446 (helix α2); Selected by CIS display; source: E. coli, recombinant; cleaved from its tag
Kd [12]: 6.97 µM | Kd [13]: 3.02 µM

B2: L-sol stapled peptide (peptide)
chain: L[S5]KEE[S5]LWEELRIKTAEKRKKREA-NH2
modifications: staple 2-6; N-terminus assumed
SMILES: CC[C@H](C)[C@H](NC(=O)[C@H](CCCNC(=N)N)NC(=O)[C@H](CC(C)C)NC(=O)[C@H](CCC(=O)O)NC(=O)[C@H](CCC(=O)O)NC(=O)[C@H](Cc1c[nH]c2ccccc12)NC(=O)[C@H](CC(C)C)NC(=O)[C@]1(C)CCCC=CCCC[C@](C)(NC(=O)[C@@H](N)CC(C)C)C(=O)N[C@@H](CCCCN)C(=O)N[C@@H](CCC(=O)O)C(=O)N[C@@H](CCC(=O)O)C(=O)N1)C(=O)N[C@@H](CCCCN)C(=O)N[C@H](C(=O)N[C@@H](C)C(=O)N[C@@H](CCC(=O)O)C(=O)N[C@@H](CCCCN)C(=O)N[C@@H](CCCNC(=N)N)C(=O)N[C@@H](CCCCN)C(=O)N[C@@H](CCCCN)C(=O)N[C@@H](CCCNC(=N)N)C(=O)N[C@@H](CCC(=O)O)C(=O)N[C@@H](C)C(N)=O)[C@@H](C)O
Kd [14]: 1.81 µM | Kd [15]: 3.09 µM

B3: FAM-labeled HLR-sol stapled peptide (peptide)
chain: L[S5]KEH[S5]LWEELRIKTAERRKKREA-NH2
modifications: staple 2-6; not fully specified (N-terminus); also: 5-carboxyfluorescein (FAM) label, site not given here
Kd [16]: 21.1 µM | Kd [17]: 16.6 µM

B4: FAM-labeled L-sol stapled peptide (peptide)
chain: L[S5]KEE[S5]LWEELRIKTAEKRKKREA-NH2
modifications: staple 2-6; not fully specified (N-terminus); also: 5-carboxyfluorescein (FAM) label, site not given here
Kd [16]: 24.4 µM | Kd [17]: 19.8 µM
